From patent US20230183713A1, “SITE-SPECIFIC RECOMBINASES FOR EFFICIENT AND SPECIFIC GENOME EDITING” (TECHNISCHE UNIVERSITÄt DRESDEN, published 2023)

Legend:
[1] = target: T1, Cre recombinase monomer with W315L mutation
T1 chain: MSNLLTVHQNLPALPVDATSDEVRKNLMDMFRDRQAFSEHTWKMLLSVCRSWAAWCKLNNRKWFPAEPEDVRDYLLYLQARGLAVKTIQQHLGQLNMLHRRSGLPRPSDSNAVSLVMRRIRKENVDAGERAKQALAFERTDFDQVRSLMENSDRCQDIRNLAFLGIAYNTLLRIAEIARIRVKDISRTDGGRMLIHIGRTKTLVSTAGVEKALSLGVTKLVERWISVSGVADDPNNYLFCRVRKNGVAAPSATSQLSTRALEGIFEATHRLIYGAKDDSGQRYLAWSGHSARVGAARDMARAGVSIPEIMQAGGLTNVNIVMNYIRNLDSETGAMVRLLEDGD

[2] = target: T2, Cre recombinase monomer with Y324W mutation
T2 chain: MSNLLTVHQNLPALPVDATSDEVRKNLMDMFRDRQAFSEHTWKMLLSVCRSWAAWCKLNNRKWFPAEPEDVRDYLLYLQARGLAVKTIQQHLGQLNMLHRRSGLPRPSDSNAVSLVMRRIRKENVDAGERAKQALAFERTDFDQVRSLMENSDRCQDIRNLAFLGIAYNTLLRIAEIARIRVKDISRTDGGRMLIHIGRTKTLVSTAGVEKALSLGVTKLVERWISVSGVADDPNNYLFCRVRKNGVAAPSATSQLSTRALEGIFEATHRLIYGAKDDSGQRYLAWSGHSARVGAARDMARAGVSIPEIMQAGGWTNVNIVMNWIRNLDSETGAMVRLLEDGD

[3] = target: T3, Cre recombinase monomer with Y324I mutation
T3 chain: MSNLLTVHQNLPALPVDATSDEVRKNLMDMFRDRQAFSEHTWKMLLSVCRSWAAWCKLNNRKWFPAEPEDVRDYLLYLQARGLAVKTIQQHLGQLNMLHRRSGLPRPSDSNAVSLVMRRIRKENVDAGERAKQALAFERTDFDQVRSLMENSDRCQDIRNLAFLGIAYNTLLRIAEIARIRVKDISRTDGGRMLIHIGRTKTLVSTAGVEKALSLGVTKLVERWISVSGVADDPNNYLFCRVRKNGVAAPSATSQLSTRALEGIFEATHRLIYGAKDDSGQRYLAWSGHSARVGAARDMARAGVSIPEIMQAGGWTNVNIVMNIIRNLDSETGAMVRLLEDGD

[4] = target: T4, Cre recombinase monomer with W315T mutation
T4 chain: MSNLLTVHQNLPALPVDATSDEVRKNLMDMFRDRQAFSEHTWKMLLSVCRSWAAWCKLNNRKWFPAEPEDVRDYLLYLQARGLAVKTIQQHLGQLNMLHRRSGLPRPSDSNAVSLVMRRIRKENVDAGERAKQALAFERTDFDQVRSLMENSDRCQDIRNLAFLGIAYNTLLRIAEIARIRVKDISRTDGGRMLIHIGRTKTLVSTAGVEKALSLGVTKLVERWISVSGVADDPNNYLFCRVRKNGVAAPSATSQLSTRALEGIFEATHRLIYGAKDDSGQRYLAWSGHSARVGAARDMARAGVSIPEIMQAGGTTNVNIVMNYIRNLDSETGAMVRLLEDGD

[5] = target: T5, Cre recombinase monomer with Y324T mutation
T5 chain: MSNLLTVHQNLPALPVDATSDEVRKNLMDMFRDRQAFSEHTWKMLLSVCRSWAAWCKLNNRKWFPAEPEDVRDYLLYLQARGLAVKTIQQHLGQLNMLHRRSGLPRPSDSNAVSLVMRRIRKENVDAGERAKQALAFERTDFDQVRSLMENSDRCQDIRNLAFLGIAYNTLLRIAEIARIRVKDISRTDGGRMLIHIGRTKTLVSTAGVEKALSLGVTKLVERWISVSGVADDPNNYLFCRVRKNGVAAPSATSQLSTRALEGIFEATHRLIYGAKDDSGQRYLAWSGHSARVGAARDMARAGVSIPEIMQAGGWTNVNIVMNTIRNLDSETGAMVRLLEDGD

[6] = target: T6, Cre recombinase monomer with Y324R mutation
T6 chain: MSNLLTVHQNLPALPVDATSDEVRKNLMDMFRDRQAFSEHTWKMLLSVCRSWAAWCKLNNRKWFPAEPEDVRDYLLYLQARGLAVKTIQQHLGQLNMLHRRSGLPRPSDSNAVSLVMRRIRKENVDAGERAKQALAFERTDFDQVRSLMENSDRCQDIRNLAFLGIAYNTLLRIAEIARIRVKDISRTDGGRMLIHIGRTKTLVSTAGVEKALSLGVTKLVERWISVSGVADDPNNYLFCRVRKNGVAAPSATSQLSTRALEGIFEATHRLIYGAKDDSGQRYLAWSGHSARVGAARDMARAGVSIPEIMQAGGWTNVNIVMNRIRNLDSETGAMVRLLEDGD

[7] = target: T7, Cre recombinase monomer with Y324N mutation
T7 chain: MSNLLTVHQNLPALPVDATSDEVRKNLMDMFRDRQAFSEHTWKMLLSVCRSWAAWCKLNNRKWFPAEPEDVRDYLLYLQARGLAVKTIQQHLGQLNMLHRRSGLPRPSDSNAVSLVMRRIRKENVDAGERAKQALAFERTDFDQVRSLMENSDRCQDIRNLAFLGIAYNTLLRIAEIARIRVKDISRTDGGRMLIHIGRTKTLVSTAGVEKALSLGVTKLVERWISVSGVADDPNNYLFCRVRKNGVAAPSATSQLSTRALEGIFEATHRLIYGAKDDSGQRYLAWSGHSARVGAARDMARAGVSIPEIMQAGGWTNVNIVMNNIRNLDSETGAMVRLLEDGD

[8] = target: T8, Cre recombinase monomer with W315V mutation
T8 chain: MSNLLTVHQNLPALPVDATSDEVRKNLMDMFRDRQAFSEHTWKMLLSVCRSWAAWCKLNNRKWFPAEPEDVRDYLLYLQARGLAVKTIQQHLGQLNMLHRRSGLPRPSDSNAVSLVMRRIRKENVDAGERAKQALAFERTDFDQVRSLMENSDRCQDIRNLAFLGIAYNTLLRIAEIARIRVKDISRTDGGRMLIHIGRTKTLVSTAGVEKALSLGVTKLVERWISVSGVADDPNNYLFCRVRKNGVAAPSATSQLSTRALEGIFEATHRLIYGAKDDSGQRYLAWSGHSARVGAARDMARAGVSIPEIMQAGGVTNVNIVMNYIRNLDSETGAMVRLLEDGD

B1: Cre recombinase monomer with Q311R mutation (protein)
chain: MSNLLTVHQNLPALPVDATSDEVRKNLMDMFRDRQAFSEHTWKMLLSVCRSWAAWCKLNNRKWFPAEPEDVRDYLLYLQARGLAVKTIQQHLGQLNMLHRRSGLPRPSDSNAVSLVMRRIRKENVDAGERAKQALAFERTDFDQVRSLMENSDRCQDIRNLAFLGIAYNTLLRIAEIARIRVKDISRTDGGRMLIHIGRTKTLVSTAGVEKALSLGVTKLVERWISVSGVADDPNNYLFCRVRKNGVAAPSATSQLSTRALEGIFEATHRLIYGAKDDSGQRYLAWSGHSARVGAARDMARAGVSIPEIMRAGGWTNVNIVMNYIRNLDSETGAMVRLLEDGD
[1]
  Median dimer activity (recombination on loxP): 68%
[2]
  Median dimer activity (recombination on loxP): 95%
[3]
  Median dimer activity (recombination on loxP): 96%
[4]
  Median dimer activity (recombination on loxP): 66%
[5]
  Median dimer activity (recombination on loxP): 85%
[6]
  Median dimer activity (recombination on loxP): 61%
[7]
  Median dimer activity (recombination on loxP): 81%
[8]
  Median dimer activity (recombination on loxP): 91%
